{
  "source": "the nanobody polyreactivity screen of Harvey et al. (2022)",
  "data": [
    {"assay": "yeast display, Sf9 membrane polyspecificity reagent, FACS + sequencing; frameworks hold sequencing errors", "procedure,_shortened": "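Synthetic nanobody libraries on Saccharomyces cerevisiae BJ5465 were galactose-induced for 36–48 hours, stained 1 hour at 4 °C with 10% biotinylated, detergent-solubilized Sf9 membrane reagent and enriched on streptavidin microbeads. FACS then separated cells into low and high (top ~1%) gates by anti-HA (expression) and streptavidin (reagent binding) fluorescence. Genes were colony-PCR amplified, MiSeq 2 × 250 sequenced and CDR-length filtered. A clone's polyreactivity label is that of its gate of origin.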", "values": [
      {"sequence": "QVQLVESGGGLVQAGGSLRLSCAASGSIFRYYVMGWYRHAPGKERELVAAISGGSTYYADSVKGRFTISRDNAKNTVYLQMNSLKPEDTAVYYCAARGKRRSGGENYAYGYWGQGTQVTVSS", "polyreactivity (PSR sort gate)": "high polyreactivity"},
      {"sequence": "QVQLVESGGGLVQAGGSLRLSCAASGSIFRYYVMGWYRQAPGKERELVAAISWSGGTTYYADSVKGRFTISRDNAKNTVYLQMNSLKPEDTAVYYCAAKGPLGYYHATDYHDYWGQGTQVTVSS", "polyreactivity (PSR sort gate)": "high polyreactivity"},
      {"sequence": "QVQLVESGGGLVQAGGSLRLSCAASGSIFSAKTMGWYRQAPGKERELVAAISSSGGRTYYADSVKGRFTISRDHAKNTVYLQMNSLKPEDTAVYYSNARSRYHVTPYSGVTGYDYWGQGTQVTVSS", "polyreactivity (PSR sort gate)": "high polyreactivity"},
      {"sequence": "QVQLVESGGGLVQAGGSLRLSCAASGSIFSANAMGWYRQAPGKERELVASITGDGSTNYADSVNGRFTISRDNAKNTVYLQMNSLKPEDTAVYYCAVDRGRRGMDYWGQGTQVTVSS", "polyreactivity (PSR sort gate)": "low polyreactivity"},
      {"sequence": "QVQLVESGGGLVQAGGSLRLSCAASGSIFSAYSMGSYRQAHGKEREFVAAISKSGSSTYYADSVKGRFTISRDNAKNTVYLQMNSLKPEDTAVYYCAAESSSYYGYYIYYYWGQGTQVTVSS", "polyreactivity (PSR sort gate)": "high polyreactivity"},
      {"sequence": "QVQLVESGGGLVQAGGSLRLSCAASGSIFSDYAKGWYRQAPVKERELVAVITSGGRTNYADSLKGRFTISRDNAKNTVYLQMNSLKPEDTAVFYWNAYVHSRRVEFNYWGQGTQVTVSS", "polyreactivity (PSR sort gate)": "high polyreactivity"},
      {"sequence": "QVQLVESGGGLVQAGGSLRLSCAASGSIFSDYAMGWYRQAPGTERELVAAITEGGDSTYYADSVKGRFTISRDNAKNTVYLQMNSLKPEDTAVYSCAAEVYQLFTSPFDYWGQGTQVTVSS", "polyreactivity (PSR sort gate)": "low polyreactivity"},
      {"sequence": "QVQLVESGGGLVQAGGSLRLSCAASGSIFSENAMGWYRQAPGKERELVADITDGGGSTYYADSVKGRFTISRDNAKNTVYLQMNSLKPEDTAVYYCNAQIFFFAPWYYEYDYWGQGTQVTVSS", "polyreactivity (PSR sort gate)": "low polyreactivity"},
      {"sequence": "QVQLVESGGGLVQAGGSLRLSCAASGSIFSENTMGWYRQAPGKKRELVADITSGGSTNYADSVKGRFTISRDNAKNTVYLQMNSLKPEDTAVYYCNADWEAYKYNYWGQGTQVTVSS", "polyreactivity (PSR sort gate)": "low polyreactivity"},
      {"sequence": "QVQLVESGGGLVQAGGSLRLSCAASGSIFSFNAMGWYRPAPGKERELVAAISKSGGRTYYADSVKGRFTISRDNAKNTVYLQMNSLKPEDTAVYYCNVVSYYLYTPGDYWGQGTQVTVSS", "polyreactivity (PSR sort gate)": "high polyreactivity"},
      {"sequence": "QVQLVESGGGLVQAGGSLRLSCAASGSIFSFNAMGWYRQAPGKERELVAVITRNGGSTYYADSVKGRFTISRDNAKNTVYLQKNSLKPEDTAVYYCAKRLYRHIMGYWGQGTQVTVSS", "polyreactivity (PSR sort gate)": "high polyreactivity"},
      {"sequence": "QVQLVESGGGLVQAGGSLRLSCAASGSIFSFYAMGWSRQAPGKERELVASISYSGGTTFYADSVKGRFTISRDNAKNTVYLQMNSLKTEDTAVYYSAATCEPPQRGYVKDEFDYWGQVTQVTVSS", "polyreactivity (PSR sort gate)": "low polyreactivity"},
      {"sequence": "QVQLVESGGGLVQAGGSLRLSCAASGSIFSFYAMGWYRQAPGKERELVASITRRGGSTSYADSVKGRFTISRDNAKNTVYLQMNSLKPEDTAVYYCASESKFISVLRVGYYYVKFDYWGQGTQVTVSS", "polyreactivity (PSR sort gate)": "high polyreactivity"},
      {"sequence": "QVQLVESGGGLVQAGGSLRLSCAASGSIFSFYTMGWYRQAPGKERELVASISRSGGTTYYADSVKGRFTISRDNAKNTVYLQMNSLKPEDTAVYYCAVRQAKYGGAYYGYYYWGQGTQVTVSS", "polyreactivity (PSR sort gate)": "high polyreactivity"},
      {"sequence": "QVQLVESGGGLVQAGGSLRLSCAASGSIFSGYDMGWYRQAPGNERELVAVISWSTTSTYYADSVKGRFTISRDNAKNTVYLQMNSLKPEDTAVYYCNAEAYQYWEFDYWGQGSQVTVSS", "polyreactivity (PSR sort gate)": "low polyreactivity"},
      {"sequence": "QVQLVESGGGLVQAGGSLRLSCAASGSIFSGYMGWYRQAPGKDRELVATITSGGSTYADSVKGRFTISRDNAKNSVYLQMNILKPEDTAVYYCARPRPVIQYSGLHYDYWGQGTEVTVSS", "polyreactivity (PSR sort gate)": "low polyreactivity"},
      {"sequence": "QVQLVESGGGLVQAGGSLRLSCAASGSIFSGYTMGWYRQAPGKERELVAGISYRGGSTYYADSVKGRFTISRDNAKNTVYLQMNSLKPEDTAVYYCAARHSTLRGYWGQGTQVTVSS", "polyreactivity (PSR sort gate)": "high polyreactivity"},
      {"sequence": "QVQLVESGGGLVQAGGSLRLSCAASGSIFSGYVMGWYRQAPGKERELVAAITWSGGRTYYADSVKGRFTISRDNAKNTVYLQMNSLKPEDTAVYYCAKRKIKSSGYYYWGQGTQVTVSS", "polyreactivity (PSR sort gate)": "high polyreactivity"},
      {"sequence": "QVQLVESGGGLVQAGGSLRLSCAASGSIFSINTMGWYRQAPGKERELVAAITRSGSGTYYADSVKGRFTISRDNAKNTVYLQMNSLKPEDTAVYYCAKSTAVKPYAYRESGFIYDYWGQGTQVTVSS", "polyreactivity (PSR sort gate)": "low polyreactivity"},
      {"sequence": "QVQLVESGGGLVQAGGSLRLSCAASGSIFSINTMGWYRQAPRTERELVATITWSVGSTNYADSVKGRFTISRDNAKNSVYLQMNSLKPVDTAVYYCNAESFYDYNYWGEGTQVTVSS", "polyreactivity (PSR sort gate)": "low polyreactivity"},
      {"sequence": "QVQLVESGGGLVQAGGSLRLSCAASGSIFSIYAMGWYRQAPGKERDFVASITVTDGSTYYADSVKGRFTISRDIAKNTVYLQMNSLKPEDTAVYYCFADGWYALYEWLAVSGYYWGQGTQVTVST", "polyreactivity (PSR sort gate)": "low polyreactivity"},
      {"sequence": "QVQLVESGGGLVQAGGSLRLSCAASGSIFSKNAMGWYRQAPGKERELVAAITGGGSTYYADSVKGRFTISRDNAKNTVYLQMNSLKPEDTAVYYCAAEFYVWGQGTQVTVSS", "polyreactivity (PSR sort gate)": "low polyreactivity"},
      {"sequence": "QVQLVESGGGLVQAGGSLRLSCAASGSIFSKYAMGWYRQAPGKEREFVAAISRSGGRTYYADSVKGRFTISRDNAKNTVYLQMNSLKPEDTAVYYCAAYPYNPRRRTEGDYWGQGTQVTVSS", "polyreactivity (PSR sort gate)": "high polyreactivity"},
      {"sequence": "QVQLVESGGGLVQAGGSLRLSCAASGSIFSLNAMGWYRQAPGKERELVAAISGRGGSTYYADSVKGRFTISRDNAKNTVYLQMNSLKPEDTAVYYCAARFSRTFLGYYYWGQGTQVTVSS", "polyreactivity (PSR sort gate)": "high polyreactivity"},
      {"sequence": "QVQLVESGGGLVQAGGSLRLSCAASGSIFSLYAMGWYRQAPGKERELVAAITTSGGRTYYADSVKGRFTISRDNAKNTVYLQMNSLKPVDTAVYYCAKRYSTPYLTDNFLSGPGYYYWGQGTQVTVSS", "polyreactivity (PSR sort gate)": "high polyreactivity"},
      {"sequence": "QVQLVESGGGLVQAGGSLRLSCAASGSIFSNYAMGWYRQAPGKERELVAAISRSGGSTRYADSVKGRFTISRDNAKNTVYLQMNSLKPEDTAVYYCNAVRYPRLMYYWGQGTQVTVSS", "polyreactivity (PSR sort gate)": "high polyreactivity"},
      {"sequence": "QVQLVESGGGLVQAGGSLRLSCAASGSIFSPNAMGWYRQAPGKERELVASITNGGSTYYADSVKGRFTISRDNAKNTVYLQMNSLKPEDTAVYYCAADHNETGLRVKVYEYDYWGQGTQVTVSS", "polyreactivity (PSR sort gate)": "low polyreactivity"},
      {"sequence": "QVQLVESGGGLVQAGGSLRLSCAASGSIFSPYAMGWYRQAPGKERELVAAIRWGGGCTYADSVKGRFTISRDNAKNTVYLQMNSVIPEDSAVYYCAARRRSLRGYDYWGQGTQVTVSS", "polyreactivity (PSR sort gate)": "high polyreactivity"},
      {"sequence": "QVQLVESGGGLVQAGGSLRLSCAASGSIFSPYAMGWYRQAPGKQRELVAAISKTGGSTYYADSVKGRFTISRDNAKNTVYLQMNSLKPEDTAVYYCATQGPRWVRHFDYWGQGTQVTVSS", "polyreactivity (PSR sort gate)": "low polyreactivity"},
      {"sequence": "QVQLVESGGGLVQAGGSLRLSCAASGSIFSRNAMGWYRQAPGKERELVAAISYSSGSTYYADSVKGRFTLSRDNAKNTVYLQMNSLKPEDTAVYYCAADTTKLQGAEVDFWGQGTQVTVSS", "polyreactivity (PSR sort gate)": "low polyreactivity"},
      {"sequence": "QVQLVESGGGLVQAGGSLRLSCAASGSIFSRNDMGWYRLAPGKERELVAAITSDDTSTYYADSVNGRFTISRDNAKNTVYLQMNSLKPEDTAVYYCAADYGNPFDYWGQGTQVTVSS", "polyreactivity (PSR sort gate)": "low polyreactivity"},
      {"sequence": "QVQLVESGGGLVQAGGSLRLSCAASGSIFSRYAMGWYRQAPAKERELVAASSSRGGSTYYADSVKGRFTISRDNAKNTVYLQMNSLKTEDTAVYYCAAQAPDTPSLDEGDFWGQGTQVTVSS", "polyreactivity (PSR sort gate)": "high polyreactivity"},
      {"sequence": "QVQLVESGGGLVQAGGSLRLSCAASGSIFSRYAMGWYRQAPGKERELVAAINGRGSRTYYADSVKGRFTISRDNAKNTVYLQMNSLKPEDTAVYYCAAGRSRLYGPRYFIYKYNYWGQGTQVTVSS", "polyreactivity (PSR sort gate)": "high polyreactivity"},
      {"sequence": "QVQLVESGGGLVQAGGSLRLSCAASGSIFSRYAMGWYRQAPGKERELVAAISQRAGSTYYADSVKGRFTISRDNAKNTVYLQMNSLKPEDTAVYYCAARRRGRKERGEDYWGQGTQVTVSS", "polyreactivity (PSR sort gate)": "high polyreactivity"},
      {"sequence": "QVQLVESGGGLVQAGGSLRLSCAASGSIFSRYAMGWYRQAPGKERELVAAISRGGSTNYADSVKGRFTISRDNAMNTVYLQMNSLKPEDTAVYYCAADGGKNPVRYDYWGQGTQVTVSS", "polyreactivity (PSR sort gate)": "high polyreactivity"},
      {"sequence": "QVQLVESGGGLVQAGGSLRLSCAASGSIFSRYAMGWYRQAPGKERELVAAISWRGGSTYYADSVKGRFTISRDNAKNTVYLQMTSLKPEDTAVYYCAAVYRGGPYYYWGQGTQVTVSS", "polyreactivity (PSR sort gate)": "high polyreactivity"},
      {"sequence": "QVQLVESGGGLVQAGGSLRLSCAASGSIFSRYAMGWYRQAPGKERELVAGISRGSSTYYADSVKGRFTISRDNAKNTVYLQMNSLKPEDTAVYYCARSGGSGGYYYWGQGTQVTVSS", "polyreactivity (PSR sort gate)": "low polyreactivity"},
      {"sequence": "QVQLVESGGGLVQAGGSLRLSCAASGSIFSRYAMGWYSQAPGKELELVAAISWRGGSTYYADSVKGRFTISRDNAKNTVYLQMNSLKPEDTAVYYCAVRDYRPYSRFDFWGQGTQVTVSS", "polyreactivity (PSR sort gate)": "high polyreactivity"},
      {"sequence": "QVQLVESGGGLVQAGGSLRLSCAASGSIFSRYTLGWYRQAPGKVRELVARINSSGTSTYYADSLKGRFTISRDKAKNTVYLQMNSLKPEDTAVYYCARTSRHVRYDYWGQGTQVTVSS", "polyreactivity (PSR sort gate)": "low polyreactivity"},
      {"sequence": "QVQLVESGGGLVQAGGSLRLSCAASGSIFSSNAMGWYRQAPGKERELGAAISRSACSTYYADSVKGRFTISRDNAKNTVYLQMNSLKPEDTAVYYCNAVTRLGTYDYWGQGTQVTVSS", "polyreactivity (PSR sort gate)": "high polyreactivity"},
      {"sequence": "QVQLVESGGGLVQAGGSLRLSCAASGSIFSSNAMGWYRQAPGKERELVASIDGGPTTYADSVKGRFTISRDNAKNTVYLQMNSLKPEDTAVYFCKAVYAFNGYDYWGQGTQVTVSS", "polyreactivity (PSR sort gate)": "low polyreactivity"}
    ]}
  ]
}
